Reference: publication PMC6366758, “Structure basis of neutralization by a novel site II/IV antibody against respiratory syncytial virus fusion protein” (PLoS ONE, 2019)

Experiments:
Details in all cases: both partners purified
[1] = biological target: T1, Pre-fusion F (Human respiratory syncytial virus A, …, UniProt P03420, stabilised); assay: SPR; Biacore T200; mAb (2 ug/mL) captured on protein A or protein G amine-coupled to a CM5 chip; RSV F injected at 3.3, 10, 30, 90 nM, 180 s association, 600 s dissociation; 1:1 fit; apparent KD = kd/ka
T1 construct: Fusion (F) glycoprotein F0 of human RSV/A2, residues 26-574, intact TM/CT; mutant furin site I, p27 region deleted, fusion peptide deletion, three stabilizing substitutions; Expressed with a gp64 signal peptide; also called pre-fusion RSV F; pre-fusion trimer; source: Sf9, baculovirus-infected, extracted from cell pellets, purified

[2] = biological target: T2, Post-fusion F (Human respiratory syncytial virus A, …, stabilised); assay: as above
T2 construct: Fusion (F) glycoprotein of human RSV/A2 from residue 26, TM/CT domains replaced with a C-terminal 6-histidine tag; Expressed with a gp64 signal peptide; also called post-fusion RSV F; post-fusion trimer; source: Sf9, baculovirus-infected, culture supernatant, purified (IMAC, ion exchange)

[3] = biological target: T3, Antigenic site II synthetic peptide of RSV F (254-278) (Human respiratory syncytial virus A, …); assay: SPR; Biacore T200; mAb (2 ug/mL, 90 s) captured on protein A or protein G on a CM5 chip; site II peptides injected at 100, 200, 400, 800 nM, 180 s, then 600 s buffer; 1:1 fit; apparent KD = kd/ka
T3 construct: RSV F antigenic site II, residues 254-278; also called Site II peptide; full-length peptide; source: synthetic peptide (Peptide 2.0)
T3 chain: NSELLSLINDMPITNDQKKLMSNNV

[4] = biological target: T4, Antigenic site II peptide 260-278 (Human respiratory syncytial virus A (A2 …)); assay: as above
T4 construct: RSV F antigenic site II, residues 260-278; source: synthetic peptide (Peptide 2.0)
T4 chain: LINDMPITNDQKKLMSNNV

[5] = biological target: T5, Antigenic site II peptide 264-278 (Human respiratory syncytial virus A (A2 …)); assay: as above
T5 construct: RSV F antigenic site II, residues 264-278; source: synthetic peptide (Peptide 2.0)
T5 chain: MPITNDQKKLMSNNV

[6] = biological target: T6, Antigenic site II peptide 254-268 (Human respiratory syncytial virus A (A2 …)); assay: as above
T6 construct: RSV F antigenic site II, residues 254-268; source: synthetic peptide (Peptide 2.0)
T6 chain: NSELLSLINDMPITN

[7] = biological target: T7, Antigenic site II peptide 254-273 (human respiratory syncytial virus); assay: as above
T7 construct: RSV F antigenic site II, residues 254-273; source: synthetic peptide (Peptide 2.0)
T7 chain: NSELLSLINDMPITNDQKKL

[8] = biological target: T8, Antigenic site II peptide 259-273 (Human respiratory syncytial virus A (A2 …)); assay: as above
T8 construct: RSV F antigenic site II, residues 259-273; source: synthetic peptide (Peptide 2.0)
T8 chain: SLINDMPITNDQKKL

B1: R4.C6 monoclonal antibody (antibody, V domains shown)
VH: EVQLQQSGPELVKPGASVKISCKASGYAFSNSWMSWVKQRPGKGLEWIGRLFPADGDITYNGHFKDKAALTADKSSNTAYIQLSSLTSEDSAVYFCARMDNSEVFWGQGTLVTVSA
VL: DILLTQSQKFMSTSVGDRVSITCKASQNVRTGVSWYQRKPGQSPKALIYLASNRHTGVPDRFTGRGSGTDFTLTISEVQSEDLADYFCLQHWTVPYTFGGGTKLEIK
notes: mouse IgG2a; mouse kappa; Only the Fv was modelled in 6CXC; also called mAb R4.C6; source: mouse hybridoma (BALB/c immunized with RSV F NP), serum free medium, purified (protein-G)
B1 was tested, and the binding result [1] was “binds”, the Kd [2] was 0.34 nM and the Kd [3] was 12.5 nM. For the same binder, the Kd [4] was 84.2 nM, the Kd [5] was 110 nM and the binding result [6] was “no binding (tested: 800 nM)”. B1: no binding (tested: 800 nM) [7]; no binding (tested: 800 nM) [8].

B2: Motavizumab (antibody, V domains shown)
VH: QVTLRESGPALVKPTQTLTLTCTFSGFSLSTAGMSVGWIRQPPGKALEWLADIWWDDKKHYNPSLKDRLTISKDTSKNQVVLKVTNMDPADTATYYCARDMIFNFYFDVWGQGTTVTVSS
VL: DIQMTQSPSTLSASVGDRVTITCSASSRVGYMHWYQQKPGKAPKLLIYDTSKLASGVPSRFSGSGSGTEFTLTISSLQPDDFATYYCFQGSGYPFTFGGGTKVEIK
notes: IgG1; kappa; also called motatvizumab; source: obtained from National Institute of Standards and Technology
B2 was tested, and the binding result [1] was “binds” and the Kd [3] was 26.7 nM.
